According to patent CN112980885A (HENGYI BIOMEDICAL TECH SHANGHAI CO LTD, dated 2021):

Each binder was assayed against 真实SARS-CoV-2(活病毒) (assay: cell-based or functional assay).

Binder	EC50 (活病毒在Vero-E6细胞中的活体外中和分析) [µg/mL]
抗体15A7 (antibody, V domains shown) VH: QVQLVQSGAEVKKPGASVKVSCKASGYTFTSYDINWVRQASGQGLEWMGWMNPNSANPGYAQKFQGRVTMTRNTSISTAFMELSSLRSDDTAVYYCARARVTIHYDILTGYYSNAFDIWGQGTMVAVSS VL: DIQMTQSPSSLSASVGDRVTITCRASQTISSYLNWYQQKPGKAPKLLIYAASSLQSGVPSRFSGSGSGADFTLTISSLQPEDFATYYCQQSYTTFMYTFGQGTMLEIK	0.61
抗体37G2 (antibody, V domains shown) VH: QVQLVQSGAEVKKPGSSVKVSCKASGGTFSSYAITWVRQAPGQGLEWMGGIIPIFGTANFAQKFQGRVTITADESTSTAYMELSSLRSEDTAVYYCAHLGGFADPFDYWGQGTLVTVSS VL: EIVLTQSPATLSLSPGERATLSCRASQSVSNYLAWYQQKAGQAPRVLIYDAFNRATGIPARFSGSGSGTDFTLTISSLEPEDFAVYYCQQRSNWPPRITFGQGTRLEIK	1.37
抗体31C2 (antibody, V domains shown) VH: QVQLVQSGAEVKKPGSSVKVSCKASGGTFSSYAISWVRQAPGQGLEWMGGIIPIFGTTNYAQKFQGRVTITADESTSTAYMELNSLRSEDTAVYYCAGRSAYGDKGYYFDYWGQGTLVTVSS VL: EIVLTQSPATLSLSPGERATLSCRASQSVSNFLAWYQQKPGQAPRLLIYDASNRATGIPARFSGSGSGTDFTLTISSLQPEDFAVYYCQQRSNWPPQETFGQGTKVEIK	0.57
